Tests used:
FGFR3 = FGFR3 (UniProt P22607); experiment: phosphorylation enrichment, bacterial display (enrichment ratio); higher = better substrate or ligand; peptides without Tyr show the background
MERTK = MERTK (UniProt Q12866); experiment: as above
EPHB2 = EPHB2 (UniProt P29323); experiment: as above
EPHB1 = EPHB1 (UniProt P54762); experiment: as above
Fyn = Fyn (UniProt P06241); experiment: as above
Jak2 = Jak2 (UniProt O60674); experiment: as above
Fes = Fes (UniProt P07332); experiment: as above
Chain of Fes (P07332 whole entry, looked up): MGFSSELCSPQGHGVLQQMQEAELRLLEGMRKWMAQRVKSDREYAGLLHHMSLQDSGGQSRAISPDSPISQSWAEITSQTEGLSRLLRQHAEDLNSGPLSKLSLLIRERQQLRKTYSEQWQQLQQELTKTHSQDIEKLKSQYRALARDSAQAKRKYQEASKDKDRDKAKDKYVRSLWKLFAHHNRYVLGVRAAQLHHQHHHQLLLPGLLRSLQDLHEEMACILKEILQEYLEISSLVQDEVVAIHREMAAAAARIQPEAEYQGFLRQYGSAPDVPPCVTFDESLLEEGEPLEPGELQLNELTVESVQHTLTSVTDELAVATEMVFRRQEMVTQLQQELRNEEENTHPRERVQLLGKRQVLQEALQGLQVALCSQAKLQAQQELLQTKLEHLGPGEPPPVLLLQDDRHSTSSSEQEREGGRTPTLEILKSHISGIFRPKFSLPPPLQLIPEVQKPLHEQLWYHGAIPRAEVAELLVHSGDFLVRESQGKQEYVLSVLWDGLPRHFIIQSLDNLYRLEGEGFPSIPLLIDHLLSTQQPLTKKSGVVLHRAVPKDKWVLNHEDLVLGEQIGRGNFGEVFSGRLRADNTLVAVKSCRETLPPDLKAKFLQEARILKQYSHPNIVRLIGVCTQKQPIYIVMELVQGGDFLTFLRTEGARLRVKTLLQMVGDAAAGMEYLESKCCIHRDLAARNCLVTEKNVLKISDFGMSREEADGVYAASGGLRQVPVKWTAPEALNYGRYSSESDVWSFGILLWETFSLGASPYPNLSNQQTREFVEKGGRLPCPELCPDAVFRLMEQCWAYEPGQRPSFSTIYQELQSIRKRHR

Fer (mouse) = experiment: as above
c-Src = experiment: as above
AncSZ = experiment: as above
FGFR1 = FGFR1 (UniProt P11362); experiment: as above
Chain of FGFR1 (P11362 whole entry, looked up): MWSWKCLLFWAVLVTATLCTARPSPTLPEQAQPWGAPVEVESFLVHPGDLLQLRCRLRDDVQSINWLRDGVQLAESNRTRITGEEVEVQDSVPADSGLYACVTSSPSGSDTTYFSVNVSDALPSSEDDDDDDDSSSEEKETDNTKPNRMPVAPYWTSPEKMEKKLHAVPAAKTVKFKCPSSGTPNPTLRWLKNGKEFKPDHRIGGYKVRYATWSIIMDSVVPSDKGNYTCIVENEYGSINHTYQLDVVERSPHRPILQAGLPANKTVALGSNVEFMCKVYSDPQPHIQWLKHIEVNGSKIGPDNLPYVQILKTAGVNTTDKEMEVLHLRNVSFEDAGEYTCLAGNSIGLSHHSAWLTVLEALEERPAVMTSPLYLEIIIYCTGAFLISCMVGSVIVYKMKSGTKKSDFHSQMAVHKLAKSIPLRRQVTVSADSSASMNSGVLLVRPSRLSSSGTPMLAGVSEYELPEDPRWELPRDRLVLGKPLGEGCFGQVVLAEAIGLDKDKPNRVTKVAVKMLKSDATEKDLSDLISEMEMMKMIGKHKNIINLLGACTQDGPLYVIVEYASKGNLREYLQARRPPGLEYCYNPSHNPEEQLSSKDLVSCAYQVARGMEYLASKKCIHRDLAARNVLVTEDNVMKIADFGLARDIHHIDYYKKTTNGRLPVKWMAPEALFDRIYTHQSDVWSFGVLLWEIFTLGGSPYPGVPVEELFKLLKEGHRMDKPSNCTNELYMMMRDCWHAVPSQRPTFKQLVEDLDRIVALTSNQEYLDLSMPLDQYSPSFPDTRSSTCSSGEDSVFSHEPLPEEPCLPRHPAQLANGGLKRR

Hck = Hck (UniProt P08631); experiment: as above
c-Abl (mouse) = experiment: as above
SHP2-C SH2 = experiment: SH2 binding enrichment of the phosphorylated peptide, bacterial display (enrichment ratio); higher = better substrate or ligand; peptides without Tyr show the background
c-Src SH2 = experiment: as above
Grb2 SH2 = Grb2 SH2 (UniProt P62993); experiment: as above
Chain of Grb2 SH2 (P62993 whole entry, looked up, the tested form may be a part): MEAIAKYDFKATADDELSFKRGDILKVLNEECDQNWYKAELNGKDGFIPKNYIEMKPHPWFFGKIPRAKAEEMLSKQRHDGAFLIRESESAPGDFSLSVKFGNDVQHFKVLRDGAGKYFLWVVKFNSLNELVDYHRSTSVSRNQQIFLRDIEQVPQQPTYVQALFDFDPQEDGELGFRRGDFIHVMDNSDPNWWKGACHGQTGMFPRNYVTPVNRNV
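Wherever SH2 binding enrichment of the phosphorylated peptide, bacterial display is given: peptide library displayed on the E. coli surface as eCPX fusions, selected cells deep-sequenced, score is each peptide's frequency after selection divided by its frequency in the input.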
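Wherever phosphorylation enrichment, bacterial display is given: 11-residue human phosphosite peptides and single-mutation variants displayed on the E. coli surface, counted by deep sequencing, each peptide's frequency after selection divided by its frequency in the unselected input library; frequency after pTyr selection over input frequency; kinase dosed for 20-30% of maximal phosphorylation in three min.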

Chain of EPHB1 (P54762 whole entry, looked up): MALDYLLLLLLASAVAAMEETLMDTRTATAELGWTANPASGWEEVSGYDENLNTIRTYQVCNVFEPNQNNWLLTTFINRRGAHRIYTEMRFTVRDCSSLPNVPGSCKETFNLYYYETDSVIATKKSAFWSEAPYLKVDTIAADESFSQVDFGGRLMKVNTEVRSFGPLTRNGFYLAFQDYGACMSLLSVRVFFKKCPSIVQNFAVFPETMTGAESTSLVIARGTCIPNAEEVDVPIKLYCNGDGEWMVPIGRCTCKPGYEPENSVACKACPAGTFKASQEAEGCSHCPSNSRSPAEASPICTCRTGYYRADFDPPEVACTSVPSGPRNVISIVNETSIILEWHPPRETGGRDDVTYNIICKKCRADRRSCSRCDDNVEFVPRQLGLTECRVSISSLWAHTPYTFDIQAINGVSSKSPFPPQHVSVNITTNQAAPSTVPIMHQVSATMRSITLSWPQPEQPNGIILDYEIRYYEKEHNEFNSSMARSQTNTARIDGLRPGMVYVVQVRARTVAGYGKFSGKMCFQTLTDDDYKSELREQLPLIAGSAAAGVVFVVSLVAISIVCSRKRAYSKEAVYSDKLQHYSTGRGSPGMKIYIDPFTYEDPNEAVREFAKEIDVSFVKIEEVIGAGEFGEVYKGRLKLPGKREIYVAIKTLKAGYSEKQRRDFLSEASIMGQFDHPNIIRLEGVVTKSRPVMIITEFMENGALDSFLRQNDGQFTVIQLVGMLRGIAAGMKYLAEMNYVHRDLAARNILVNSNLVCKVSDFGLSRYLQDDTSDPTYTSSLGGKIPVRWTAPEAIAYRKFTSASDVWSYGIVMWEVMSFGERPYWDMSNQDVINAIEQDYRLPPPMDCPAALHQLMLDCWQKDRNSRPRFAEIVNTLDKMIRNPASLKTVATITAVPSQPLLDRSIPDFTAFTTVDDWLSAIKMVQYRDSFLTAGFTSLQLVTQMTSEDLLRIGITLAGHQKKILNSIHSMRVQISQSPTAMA
Chain of EPHB2 (P29323 whole entry, looked up): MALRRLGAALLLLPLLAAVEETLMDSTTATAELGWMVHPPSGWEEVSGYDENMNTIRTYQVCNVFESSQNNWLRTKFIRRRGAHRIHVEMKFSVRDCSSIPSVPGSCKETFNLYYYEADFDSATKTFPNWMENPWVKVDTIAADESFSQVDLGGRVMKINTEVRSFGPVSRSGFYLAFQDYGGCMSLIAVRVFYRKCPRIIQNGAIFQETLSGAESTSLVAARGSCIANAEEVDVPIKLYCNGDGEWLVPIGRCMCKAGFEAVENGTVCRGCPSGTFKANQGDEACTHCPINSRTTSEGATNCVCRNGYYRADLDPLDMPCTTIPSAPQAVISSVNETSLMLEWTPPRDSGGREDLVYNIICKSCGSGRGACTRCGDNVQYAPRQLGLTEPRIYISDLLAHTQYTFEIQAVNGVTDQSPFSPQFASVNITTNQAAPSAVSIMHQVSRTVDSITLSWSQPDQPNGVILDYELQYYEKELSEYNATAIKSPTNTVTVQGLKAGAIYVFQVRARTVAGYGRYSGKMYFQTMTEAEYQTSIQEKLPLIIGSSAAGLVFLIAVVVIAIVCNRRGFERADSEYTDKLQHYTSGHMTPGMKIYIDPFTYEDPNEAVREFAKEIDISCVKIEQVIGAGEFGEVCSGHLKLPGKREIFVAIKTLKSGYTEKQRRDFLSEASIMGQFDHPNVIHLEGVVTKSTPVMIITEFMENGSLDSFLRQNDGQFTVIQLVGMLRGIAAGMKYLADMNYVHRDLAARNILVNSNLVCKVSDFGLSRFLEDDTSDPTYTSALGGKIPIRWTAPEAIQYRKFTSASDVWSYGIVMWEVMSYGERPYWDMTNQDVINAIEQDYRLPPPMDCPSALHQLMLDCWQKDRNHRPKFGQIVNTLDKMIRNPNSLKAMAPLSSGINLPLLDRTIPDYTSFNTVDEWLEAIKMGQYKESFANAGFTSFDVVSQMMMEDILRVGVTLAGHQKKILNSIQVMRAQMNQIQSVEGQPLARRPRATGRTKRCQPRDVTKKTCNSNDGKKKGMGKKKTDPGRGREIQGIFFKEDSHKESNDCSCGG
Chain of MERTK (Q12866 whole entry, looked up): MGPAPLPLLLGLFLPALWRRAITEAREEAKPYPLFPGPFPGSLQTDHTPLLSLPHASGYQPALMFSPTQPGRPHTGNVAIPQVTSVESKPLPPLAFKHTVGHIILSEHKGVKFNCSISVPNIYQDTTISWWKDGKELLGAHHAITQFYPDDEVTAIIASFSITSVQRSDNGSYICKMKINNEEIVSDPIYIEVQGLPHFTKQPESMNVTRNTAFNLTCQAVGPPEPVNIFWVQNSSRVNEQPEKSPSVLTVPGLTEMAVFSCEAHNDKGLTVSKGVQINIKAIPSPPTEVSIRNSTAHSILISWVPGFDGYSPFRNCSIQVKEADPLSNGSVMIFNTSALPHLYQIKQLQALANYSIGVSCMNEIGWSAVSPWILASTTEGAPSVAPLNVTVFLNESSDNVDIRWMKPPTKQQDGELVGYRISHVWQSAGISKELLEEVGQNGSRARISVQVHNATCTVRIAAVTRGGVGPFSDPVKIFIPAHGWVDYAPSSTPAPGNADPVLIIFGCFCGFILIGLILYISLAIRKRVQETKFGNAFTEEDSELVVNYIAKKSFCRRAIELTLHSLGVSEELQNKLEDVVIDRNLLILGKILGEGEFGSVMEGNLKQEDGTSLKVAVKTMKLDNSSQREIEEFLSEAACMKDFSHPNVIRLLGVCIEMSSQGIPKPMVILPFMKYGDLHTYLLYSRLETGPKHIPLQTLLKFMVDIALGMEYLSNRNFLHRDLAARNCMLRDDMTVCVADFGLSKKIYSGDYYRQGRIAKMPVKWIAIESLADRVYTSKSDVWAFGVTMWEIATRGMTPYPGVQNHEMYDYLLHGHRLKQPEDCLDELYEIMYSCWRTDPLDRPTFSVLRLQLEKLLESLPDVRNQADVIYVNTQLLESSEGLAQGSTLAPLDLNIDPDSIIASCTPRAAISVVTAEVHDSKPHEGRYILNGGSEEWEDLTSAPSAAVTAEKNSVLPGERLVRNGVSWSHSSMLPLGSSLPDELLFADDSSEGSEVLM

Sequence | phosphorylation enrichment (FGFR3) | phosphorylation enrichment (MERTK) | phosphorylation enrichment (EPHB2) | phosphorylation enrichment (EPHB1) | phosphorylation enrichment (Fyn) | phosphorylation enrichment (Jak2) | phosphorylation enrichment (Fes) | phosphorylation enrichment (Fer (mouse)) | phosphorylation enrichment (c-Src) | phosphorylation enrichment (AncSZ) | phosphorylation enrichment (FGFR1) | phosphorylation enrichment (Hck) | phosphorylation enrichment (c-Abl (mouse)) | SH2 binding enrichment (SHP2-C SH2) | SH2 binding enrichment (c-Src SH2) | SH2 binding enrichment (Grb2 SH2)
QKPLDYYRVNL [GALE_Y104] | 14.3 | 0.79 | 2.35 | 6.99 | 0.697 | 20.5 | 1.27 | 0.81 | 1.85 | 1.77 | 17.8 | 0.908 | 2.19 | 0.672 | 0.422 | 0.937
QLAPQYTFAQG [FLNA_Y1761_YF] | 0.42 | 0.457 | 0.523 | 0.344 | 0.259 | 0.512 | 0.564 | 0.471 | 0.599 | 0.734 | 0.561 | 0.443 | 0.691 | 1.15 | 0.634 | 0.829
QLLIEYPPEEV [ZZZ3_Y670_K669E] | 0.833 | 0.622 | 0.933 | 0.788 | 0.618 | 1.27 | 1.31 | 0.671 | 0.44 | 1.36 | 0.659 | 0.534 | 1.03 | 0.679 | 0.569 | 1.04
QNTVDYFDLFG [PTPN11_Y62_G60V_YF] | 12.3 | 0.646 | 1.16 | 2.34 | 0.614 | 2.22 | 1.44 | 0.609 | 0.619 | 2.35 | 16.2 | 0.595 | 0.988 | 0.876 | 0.759 | 1.14
QRASDYYSQQM [GBP6_Y333_A331S] | 1.22 | 0.558 | 0.589 | 0.66 | 0.574 | 0.805 | 0.754 | 0.453 | 0.58 | 0.825 | 1.36 | 0.788 | 0.486 | 0.403 | 0.39 | 0.928
QRIHDYYEHRY [HCN4_Y554] | 9.67 | 0.433 | 1.23 | 1.17 | 0.657 | 0.794 | 0.974 | 0.903 | 0.478 | 1.25 | 15.7 | 0.825 | 0.445 | 1 | 1.36 | 1.01
QRRLIYRCQVG [NR2E3_Y81_R76Q] | 0.845 | 0.652 | 0.728 | 0.622 | 0.764 | 1.03 | 0.861 | 0.643 | 0.569 | 0.968 | 0.579 | 0.629 | 0.595 | 0.412 | 0.606 | 0.628
QRRNVYFFSFL [PTEN_Y176_Y174N_YF] | 0.728 | 0.5 | 0.475 | 0.649 | 1.15 | 1.13 | 1.42 | 0.398 | 0.67 | 1.11 | 0.562 | 0.34 | 0.509 | 1.8 | 0.92 | 1.13
QRRNVYYYSYL [PTEN_Y176_Y174N] | 11.6 | 16 | 3.05 | 5.79 | 9.83 | 8.42 | 1.41 | 2.77 | 8.15 | 1.72 | 16.4 | 7.54 | 1.15 | 1.27 | 1.58 | 0.955
QTSTDYDIRFF [CSNK2A1_Y131_L128S_YF] | 1.41 | 0.688 | 1.22 | 1.27 | 1.43 | 1.61 | 1.81 | 0.809 | 0.892 | 2.12 | 0.667 | 0.968 | 1.18 | 0.864 | 0.477 | 1.15
QWLEQYTQAIE [LSP1_Y234] | 0.589 | 0.37 | 0.623 | 0.579 | 0.596 | 0.924 | 1.15 | 0.473 | 0.406 | 1.4 | 0.489 | 0.699 | 10.2 | 0.574 | 0.709 | 0.876
QYNMQYSSSAA [ERBB2IP_Y981_I979M] | 0.655 | 0.793 | 0.687 | 0.445 | 0.736 | 0.956 | 1.18 | 0.872 | 0.859 | 0.882 | 0.792 | 0.732 | 1.09 | 1.72 | 0.603 | 1.04
RAILLYEFVGK [NATD1_Y45_V42I_YF] | 5.57 | 24.9 | 65.8 | 49.4 | 12.1 | 3.76 | 7.5 | 32.5 | 12.3 | 4.95 | 4.88 | 19.9 | 2.52 | 1.7 | 1.31 | 1.58
RCYVYYYSYLL [PTEN_Y177_R173C] | 1.64 | 1.01 | 0.936 | 0.82 | 0.787 | 2.13 | 2 | 0.86 | 1.36 | 1.42 | 1.35 | 1.08 | 1.71 | 0.51 | 0.407 | 0.668
RDHFGYRQSVT [CD55_Y245_YF] | 0.791 | 0.474 | 0.33 | 0.603 | 0.435 | 0.572 | 0.702 | 0.427 | 0.626 | 0.722 | 0.471 | 0.489 | 0.538 | 0.82 | 0.629 | 0.644
RDLEQYVNNVN [PCDH19_Y1097] | 0.633 | 0.612 | 0.625 | 0.64 | 0.405 | 1.09 | 1.01 | 0.356 | 0.541 | 1.06 | 0.476 | 0.377 | 0.968 | 0.573 | 0.59 | 1.8

— the supplement of paper PMC10065799, “High-throughput profiling of sequence recognition by tyrosine kinases and SH2 domains using bacterial peptide display” (eLife, 2023)
